In patent US7247704:

Target: Human Lung Tryptase (human) (UniProt Q15661)
Test: cell-based or functional assay

Chain of UniProt Q15661 (Q15661 31-275 limits assumed): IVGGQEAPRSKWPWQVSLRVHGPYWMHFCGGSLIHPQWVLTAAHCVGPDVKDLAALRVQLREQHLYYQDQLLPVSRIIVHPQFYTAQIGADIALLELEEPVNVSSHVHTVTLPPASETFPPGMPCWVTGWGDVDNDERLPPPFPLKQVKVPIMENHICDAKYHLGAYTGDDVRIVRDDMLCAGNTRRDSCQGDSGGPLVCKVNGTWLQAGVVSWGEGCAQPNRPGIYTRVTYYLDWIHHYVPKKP

Substance: recombinant human Secretory Leukocyte Protease Inhibitor (rhSLPI) (from UniProt P03973 26-132)
- % Inhibition of tryptase (cleavage of vasoactive intestinal peptide, RP-HPLC; example calculation): 36.7%
